Assay results from the supplement of paper PMC10567573.

B1: ZNF8 (parent)
chain: SLGRHKRTHTGEKPYTCSVCGKSF

Variants of: B1
Assay: protein stability index of a GFP-peptide fusion (GPS, HEK-293T) (PSI 1-6); higher = more stable
Details: c terminus: a fixed tail appended
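Also: lentivirally expressed fusions sorted by FACS into six bins by GFP to DsRed ratio, PSI derived from sequencing read proportions per bin multiplied by bin number.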

Variant | protein stability index
DLGRHKRTHTGEKPYTCSVCGKSF | 3.4
ELGRHKRTHTGEKPYTCSVCGKSF | 3.94
FLGRHKRTHTGEKPYTCSVCGKSF | 2.21
GLGRHKRTHTGEKPYTCSVCGKSF | 2.8
HLGRHKRTHTGEKPYTCSVCGKSF | 3.08
ILGRHKRTHTGEKPYTCSVCGKSF | 2.18
KLGRHKRTHTGEKPYTCSVCGKSF | 3.05
LLGRHKRTHTGEKPYTCSVCGKSF | 1.73
MLGRHKRTHTGEKPYTCSVCGKSF | 2.46
NLGRHKRTHTGEKPYTCSVCGKSF | 2.63
PLGRHKRTHTGEKPYTCSVCGKSF | 2.72
QLGRHKRTHTGEKPYTCSVCGKSF | 3.71
RLGRHKRTHTGEKPYTCSVCGKSF | 2.82
TLGRHKRTHTGEKPYTCSVCGKSF | 2.94
VLGRHKRTHTGEKPYTCSVCGKSF | 2.58
WLGRHKRTHTGEKPYTCSVCGKSF | 1.5
YLGRHKRTHTGEKPYTCSVCGKSF | 2.42
SAGRHKRTHTGEKPYTCSVCGKSF | 2.71
SCGRHKRTHTGEKPYTCSVCGKSF | 4.3
SDGRHKRTHTGEKPYTCSVCGKSF | 3.19
SEGRHKRTHTGEKPYTCSVCGKSF | 2.8
SFGRHKRTHTGEKPYTCSVCGKSF | 2.61
SGGRHKRTHTGEKPYTCSVCGKSF | 2.95
SHGRHKRTHTGEKPYTCSVCGKSF | 4.09

Variant | protein stability index
SIGRHKRTHTGEKPYTCSVCGKSF | 2.99
SKGRHKRTHTGEKPYTCSVCGKSF | 3.66
SMGRHKRTHTGEKPYTCSVCGKSF | 2.67
SNGRHKRTHTGEKPYTCSVCGKSF | 3.82
SPGRHKRTHTGEKPYTCSVCGKSF | 2.77
SQGRHKRTHTGEKPYTCSVCGKSF | 2.25
SRGRHKRTHTGEKPYTCSVCGKSF | 2.04
STGRHKRTHTGEKPYTCSVCGKSF | 3.12
SVGRHKRTHTGEKPYTCSVCGKSF | 2.8
SWGRHKRTHTGEKPYTCSVCGKSF | 2.93
SYGRHKRTHTGEKPYTCSVCGKSF | 3.26
SLARHKRTHTGEKPYTCSVCGKSF | 2.12
SLCRHKRTHTGEKPYTCSVCGKSF | 3.68
SLDRHKRTHTGEKPYTCSVCGKSF | 3.32
SLERHKRTHTGEKPYTCSVCGKSF | 3.41
SLHRHKRTHTGEKPYTCSVCGKSF | 4.17
SLIRHKRTHTGEKPYTCSVCGKSF | 3.15
SLKRHKRTHTGEKPYTCSVCGKSF | 4.65
SLLRHKRTHTGEKPYTCSVCGKSF | 1.21
SLMRHKRTHTGEKPYTCSVCGKSF | 2.66
SLNRHKRTHTGEKPYTCSVCGKSF | 2.21
SLPRHKRTHTGEKPYTCSVCGKSF | 3.02
SLRRHKRTHTGEKPYTCSVCGKSF | 2.03
SLSRHKRTHTGEKPYTCSVCGKSF | 1.93

Variant | protein stability index
SLTRHKRTHTGEKPYTCSVCGKSF | 3.28
SLVRHKRTHTGEKPYTCSVCGKSF | 3.78
SLWRHKRTHTGEKPYTCSVCGKSF | 1.98
SLYRHKRTHTGEKPYTCSVCGKSF | 2.79
SLGCHKRTHTGEKPYTCSVCGKSF | 4.3
SLGDHKRTHTGEKPYTCSVCGKSF | 3
SLGEHKRTHTGEKPYTCSVCGKSF | 4.09
SLGFHKRTHTGEKPYTCSVCGKSF | 2.57
SLGGHKRTHTGEKPYTCSVCGKSF | 3.44
SLGHHKRTHTGEKPYTCSVCGKSF | 2.85
SLGIHKRTHTGEKPYTCSVCGKSF | 1.89
SLGMHKRTHTGEKPYTCSVCGKSF | 2.5
SLGNHKRTHTGEKPYTCSVCGKSF | 3.1
SLGPHKRTHTGEKPYTCSVCGKSF | 2.34
SLGQHKRTHTGEKPYTCSVCGKSF | 2.2
SLGSHKRTHTGEKPYTCSVCGKSF | 3.19
SLGTHKRTHTGEKPYTCSVCGKSF | 3.61
SLGVHKRTHTGEKPYTCSVCGKSF | 2.5
SLGWHKRTHTGEKPYTCSVCGKSF | 2.13
SLGRAKRTHTGEKPYTCSVCGKSF | 2.5
SLGRCKRTHTGEKPYTCSVCGKSF | 3.77
SLGRDKRTHTGEKPYTCSVCGKSF | 3.17
SLGREKRTHTGEKPYTCSVCGKSF | 3.15
SLGRFKRTHTGEKPYTCSVCGKSF | 1.82

Variant | protein stability index
SLGRGKRTHTGEKPYTCSVCGKSF | 3.18
SLGRIKRTHTGEKPYTCSVCGKSF | 3.34
SLGRKKRTHTGEKPYTCSVCGKSF | 3.01
SLGRLKRTHTGEKPYTCSVCGKSF | 2.26
SLGRMKRTHTGEKPYTCSVCGKSF | 2.6
SLGRNKRTHTGEKPYTCSVCGKSF | 2.52
SLGRPKRTHTGEKPYTCSVCGKSF | 2.78
SLGRQKRTHTGEKPYTCSVCGKSF | 2.84
SLGRRKRTHTGEKPYTCSVCGKSF | 3.03
SLGRSKRTHTGEKPYTCSVCGKSF | 2.35
SLGRTKRTHTGEKPYTCSVCGKSF | 3.06
SLGRVKRTHTGEKPYTCSVCGKSF | 2.54
SLGRWKRTHTGEKPYTCSVCGKSF | 2.46
SLGRYKRTHTGEKPYTCSVCGKSF | 2.72
SLGRHARTHTGEKPYTCSVCGKSF | 2.68
SLGRHCRTHTGEKPYTCSVCGKSF | 3.29
SLGRHDRTHTGEKPYTCSVCGKSF | 4.27
SLGRHERTHTGEKPYTCSVCGKSF | 3.29
SLGRHFRTHTGEKPYTCSVCGKSF | 1.82
SLGRHGRTHTGEKPYTCSVCGKSF | 2.33
SLGRHHRTHTGEKPYTCSVCGKSF | 1.97
SLGRHIRTHTGEKPYTCSVCGKSF | 2.43
